Test results taken from PMC13397619.

B1: NLV3 TCR beta chain (CDR3β only) (parent)
chain: ASSPTGGSPSPLH
partner: MLVPMVATV

Variants of: B1
Experiment: T-Switch: Jurkat TCRβ−/− cells expressing a CDR3 saturation-mutagenesis library, stained with two peptide-HLA-A*02:01 tetramers (original and novel peptide) plus anti-CD3, FACS-sorted into four gates, gDNA sequenced
Conditions: with HLA-A*02:01 with peptide … (NLV 3-1, the original bait), tetramers 1 µg/mL, 30 min on ice, DP and SW gates expanded about 10 days between rounds ('two to three rounds of selection' in the Methods), gate SP: higher = more of the variant in the gate that binds the original peptide and not the novel one = retained original binding. Fold enrichment of the CDR3 variant in one FACS gate of a two-tetra, unresolved parent, parent is a CDR3 fragment, scale: fold enrichment, numbering: sequential-on-construct, sequence …

Point of comparison: […] (CDR3 as printed); P4F derived by comparing it with the table's wild-type CDR3 ASSPTGGSPSPLH, enrichment 1.88. Against it:
- […] (CDR3 as printed); P9M derived by comparing it with the table's wild-type CDR3 ASSPTGGSPSPLH — lower, 0
- […] (CDR3 as printed); S8H derived by comparing it with the table's wild-type CDR3 ASSPTGGSPSPLH — lower, 0
- […] (CDR3 as printed); S3E derived by comparing it with the table's wild-type CDR3 ASSPTGGSPSPLH — lower, 0
- […] (CDR3 as printed); G6T derived by comparing it with the table's wild-type CDR3 ASSPTGGSPSPLH — lower, 0.64
- […] (CDR3 as printed); A1F derived by comparing it with the table's wild-type CDR3 ASSPTGGSPSPLH — lower, 0
- […] (CDR3 as printed); T5F derived by comparing it with the table's wild-type CDR3 ASSPTGGSPSPLH — higher, 12.8
- […] (CDR3 as printed); S10P derived by comparing it with the table's wild-type CDR3 ASSPTGGSPSPLH — lower, 0
- […] (CDR3 as printed); P4A derived by comparing it with the table's wild-type CDR3 ASSPTGGSPSPLH — higher, 1.98
- […] (CDR3 as printed); G7Q derived by comparing it with the table's wild-type CDR3 ASSPTGGSPSPLH — lower, 0
- […] (CDR3 as printed); G6W derived by comparing it with the table's wild-type CDR3 ASSPTGGSPSPLH — lower, 0
- […] (CDR3 as printed); S10W derived by comparing it with the table's wild-type CDR3 ASSPTGGSPSPLH — lower, 0
- […] (CDR3 as printed); H13E derived by comparing it with the table's wild-type CDR3 ASSPTGGSPSPLH — higher, 4.01
- […] (CDR3 as printed); P4C derived by comparing it with the table's wild-type CDR3 ASSPTGGSPSPLH — lower, 0
- […] (CDR3 as printed); G6R derived by comparing it with the table's wild-type CDR3 ASSPTGGSPSPLH — lower, 0
- […] (CDR3 as printed); S2Y derived by comparing it with the table's wild-type CDR3 ASSPTGGSPSPLH — lower, 0
- […] (CDR3 as printed); S3T derived by comparing it with the table's wild-type CDR3 ASSPTGGSPSPLH — higher, 10.9
- […] (CDR3 as printed); S3A derived by comparing it with the table's wild-type CDR3 ASSPTGGSPSPLH — higher, 9.82
- […] (CDR3 as printed); S8N derived by comparing it with the table's wild-type CDR3 ASSPTGGSPSPLH — lower, 0
- […] (CDR3 as printed); P4S derived by comparing it with the table's wild-type CDR3 ASSPTGGSPSPLH — lower, 0.723
- […] (CDR3 as printed); S10E derived by comparing it with the table's wild-type CDR3 ASSPTGGSPSPLH — higher, 5.53
- […] (CDR3 as printed); A1E derived by comparing it with the table's wild-type CDR3 ASSPTGGSPSPLH — lower, 0
- […] (CDR3 as printed); A1P derived by comparing it with the table's wild-type CDR3 ASSPTGGSPSPLH — lower, 0
- […] (CDR3 as printed); G7Y derived by comparing it with the table's wild-type CDR3 ASSPTGGSPSPLH — higher, 4.27
- […] (CDR3 as printed); S8E derived by comparing it with the table's wild-type CDR3 ASSPTGGSPSPLH — lower, 0
- […] (CDR3 as printed); A1I derived by comparing it with the table's wild-type CDR3 ASSPTGGSPSPLH — lower, 0
- […] (CDR3 as printed); S8Q derived by comparing it with the table's wild-type CDR3 ASSPTGGSPSPLH — lower, 0
- […] (CDR3 as printed); G6Q derived by comparing it with the table's wild-type CDR3 ASSPTGGSPSPLH — lower, 0
- […] (CDR3 as printed); S2A derived by comparing it with the table's wild-type CDR3 ASSPTGGSPSPLH — higher, 3.53
- […] (CDR3 as printed); S8P derived by comparing it with the table's wild-type CDR3 ASSPTGGSPSPLH — lower, 0
- […] (CDR3 as printed); P11Q derived by comparing it with the table's wild-type CDR3 ASSPTGGSPSPLH — higher, 5.97
- […] (CDR3 as printed); S3D derived by comparing it with the table's wild-type CDR3 ASSPTGGSPSPLH — higher, 3.32
- […] (CDR3 as printed); S10G derived by comparing it with the table's wild-type CDR3 ASSPTGGSPSPLH — higher, 14.9
- […] (CDR3 as printed); L12R derived by comparing it with the table's wild-type CDR3 ASSPTGGSPSPLH — lower, 0
- […] (CDR3 as printed); S8L derived by comparing it with the table's wild-type CDR3 ASSPTGGSPSPLH — lower, 0
- […] (CDR3 as printed); S3Y derived by comparing it with the table's wild-type CDR3 ASSPTGGSPSPLH — lower, 0
- […] (CDR3 as printed); A1Q derived by comparing it with the table's wild-type CDR3 ASSPTGGSPSPLH — lower, 0
- […] (CDR3 as printed); H13I derived by comparing it with the table's wild-type CDR3 ASSPTGGSPSPLH — higher, 11.3
- […] (CDR3 as printed); P11N derived by comparing it with the table's wild-type CDR3 ASSPTGGSPSPLH — lower, 0
- […] (CDR3 as printed); P11S derived by comparing it with the table's wild-type CDR3 ASSPTGGSPSPLH — higher, 2.02
- […] (CDR3 as printed); S3K derived by comparing it with the table's wild-type CDR3 ASSPTGGSPSPLH — lower, 0
- […] (CDR3 as printed); G7F derived by comparing it with the table's wild-type CDR3 ASSPTGGSPSPLH — lower, 0
- […] (CDR3 as printed); H13N derived by comparing it with the table's wild-type CDR3 ASSPTGGSPSPLH — higher, 7.17
- […] (CDR3 as printed); P11L derived by comparing it with the table's wild-type CDR3 ASSPTGGSPSPLH — higher, 2.19
- […] (CDR3 as printed); P4G derived by comparing it with the table's wild-type CDR3 ASSPTGGSPSPLH — lower, 0
- […] (CDR3 as printed); P11E derived by comparing it with the table's wild-type CDR3 ASSPTGGSPSPLH — higher, 4.19
- […] (CDR3 as printed); S8R derived by comparing it with the table's wild-type CDR3 ASSPTGGSPSPLH — lower, 0
- […] (CDR3 as printed); H13P derived by comparing it with the table's wild-type CDR3 ASSPTGGSPSPLH — lower, 0
- […] (CDR3 as printed); S3C derived by comparing it with the table's wild-type CDR3 ASSPTGGSPSPLH — higher, 11.2
- […] (CDR3 as printed); L12F derived by comparing it with the table's wild-type CDR3 ASSPTGGSPSPLH — lower, 0
- […] (CDR3 as printed); T5I derived by comparing it with the table's wild-type CDR3 ASSPTGGSPSPLH — higher, 11.6
- […] (CDR3 as printed); A1T derived by comparing it with the table's wild-type CDR3 ASSPTGGSPSPLH — lower, 0
- […] (CDR3 as printed); L12Y derived by comparing it with the table's wild-type CDR3 ASSPTGGSPSPLH — lower, 0
- […] (CDR3 as printed); S10D derived by comparing it with the table's wild-type CDR3 ASSPTGGSPSPLH — lower, 0.543
- […] (CDR3 as printed); G7A derived by comparing it with the table's wild-type CDR3 ASSPTGGSPSPLH — lower, 0
- […] (CDR3 as printed); G7E derived by comparing it with the table's wild-type CDR3 ASSPTGGSPSPLH — lower, 0.336
- […] (CDR3 as printed); S3M derived by comparing it with the table's wild-type CDR3 ASSPTGGSPSPLH — lower, 0
- […] (CDR3 as printed); G6L derived by comparing it with the table's wild-type CDR3 ASSPTGGSPSPLH — lower, 0
- […] (CDR3 as printed); S3H derived by comparing it with the table's wild-type CDR3 ASSPTGGSPSPLH — lower, 0.783
- […] (CDR3 as printed); S8M derived by comparing it with the table's wild-type CDR3 ASSPTGGSPSPLH — lower, 0
- […] (CDR3 as printed); H13Q derived by comparing it with the table's wild-type CDR3 ASSPTGGSPSPLH — higher, 5.02
- […] (CDR3 as printed); P9H derived by comparing it with the table's wild-type CDR3 ASSPTGGSPSPLH — lower, 0
- […] (CDR3 as printed); G7V derived by comparing it with the table's wild-type CDR3 ASSPTGGSPSPLH — lower, 0
- […] (CDR3 as printed); T5W derived by comparing it with the table's wild-type CDR3 ASSPTGGSPSPLH — higher, 15.1
- […] (CDR3 as printed); H13D derived by comparing it with the table's wild-type CDR3 ASSPTGGSPSPLH — higher, 8.55
- […] (CDR3 as printed); T5C derived by comparing it with the table's wild-type CDR3 ASSPTGGSPSPLH — lower, 0
- […] (CDR3 as printed); P4Y derived by comparing it with the table's wild-type CDR3 ASSPTGGSPSPLH — lower, 1.03
- […] (CDR3 as printed); P11F derived by comparing it with the table's wild-type CDR3 ASSPTGGSPSPLH — lower, 0
- […] (CDR3 as printed); G6M derived by comparing it with the table's wild-type CDR3 ASSPTGGSPSPLH — lower, 0
- […] (CDR3 as printed); S2R derived by comparing it with the table's wild-type CDR3 ASSPTGGSPSPLH — lower, 0
- […] (CDR3 as printed); A1D derived by comparing it with the table's wild-type CDR3 ASSPTGGSPSPLH — lower, 0
- […] (CDR3 as printed); P11G derived by comparing it with the table's wild-type CDR3 ASSPTGGSPSPLH — lower, 0
- […] (CDR3 as printed); T5S derived by comparing it with the table's wild-type CDR3 ASSPTGGSPSPLH — lower, 0
- […] (CDR3 as printed); P4D derived by comparing it with the table's wild-type CDR3 ASSPTGGSPSPLH — lower, 0
- […] (CDR3 as printed); S3W derived by comparing it with the table's wild-type CDR3 ASSPTGGSPSPLH — lower, 0
- […] (CDR3 as printed); T5Q derived by comparing it with the table's wild-type CDR3 ASSPTGGSPSPLH — lower, 0
- […] (CDR3 as printed); A1Y derived by comparing it with the table's wild-type CDR3 ASSPTGGSPSPLH — lower, 0
- […] (CDR3 as printed); P9G derived by comparing it with the table's wild-type CDR3 ASSPTGGSPSPLH — lower, 0
- […] (CDR3 as printed); P9Y derived by comparing it with the table's wild-type CDR3 ASSPTGGSPSPLH — lower, 0
- […] (CDR3 as printed); G7L derived by comparing it with the table's wild-type CDR3 ASSPTGGSPSPLH — lower, 0
- […] (CDR3 as printed); S3N derived by comparing it with the table's wild-type CDR3 ASSPTGGSPSPLH — higher, 4.09
- […] (CDR3 as printed); A1V derived by comparing it with the table's wild-type CDR3 ASSPTGGSPSPLH — lower, 0.479
- […] (CDR3 as printed); G6H derived by comparing it with the table's wild-type CDR3 ASSPTGGSPSPLH — lower, 0

Same assay, conditions: with HLA-A*02:01 with peptide … (NLV 3-1, the original bait), tetramers 1 µg/mL, 30 min on ice, DP and SW gates expanded about 10 days between rounds ('two to three rounds of selection' in the Methods), gate SP: higher = more of the variant in the gate that binds the original peptide and not the novel one = retained original binding. Fold enrichment of the CDR3 variant in one FACS gate of a two-tetra, unresolved parent, parent is a CDR3 fragment, zero in all gates, scale: fold enrichment, numbering: …

Point of comparison: […] (CDR3 as printed); G7P derived by comparing it with the table's wild-type CDR3 ASSPTGGSPSPLH, enrichment 0. Against it:
- […] (CDR3 as printed); S2L derived by comparing it with the table's wild-type CDR3 ASSPTGGSPSPLH — the same, 0
